Results taken from article PMC7368063, “An FGF15/19-TFEB regulatory loop controls hepatic cholesterol and bile acid homeostasis”.

Molecular target: TFEB (rhTFEB) (human, UniProt P19484 1-476)
Assay: EMSA; EMSA kit with SYBR green (Thermo Fisher), 5 pmol annealed probe, 200 ng rhTFEB; buffer, salt, pH and temperature not stated
Conditions: protein: commercial; chain copies: 2

Chain of TFEB (rhTFEB) (P19484 whole entry): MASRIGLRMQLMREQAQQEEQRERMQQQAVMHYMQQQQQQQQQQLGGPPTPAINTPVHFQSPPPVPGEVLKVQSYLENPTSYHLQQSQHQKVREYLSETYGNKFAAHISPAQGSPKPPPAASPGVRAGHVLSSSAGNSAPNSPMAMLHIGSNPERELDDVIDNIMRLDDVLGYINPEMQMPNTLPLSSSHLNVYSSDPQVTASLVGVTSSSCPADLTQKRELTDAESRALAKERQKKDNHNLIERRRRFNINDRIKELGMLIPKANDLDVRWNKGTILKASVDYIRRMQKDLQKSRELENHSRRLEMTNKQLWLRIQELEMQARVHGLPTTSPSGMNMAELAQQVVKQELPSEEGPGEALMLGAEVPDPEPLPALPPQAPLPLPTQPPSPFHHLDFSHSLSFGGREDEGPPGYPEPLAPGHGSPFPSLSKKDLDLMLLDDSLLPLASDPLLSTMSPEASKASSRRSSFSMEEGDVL

B1: NPC2 CLEAR probe (positive control) (dsDNA)
DNA 1: GCGCGGGCGGGCCTCAGCTGTGGTTACTGGTGACAGGTCGCCTGA
DNA 2: TCAGGCGACCTGTCACCAGTAACCACAGCTGAGGCCCGCCCGCGC
  binding result: binds
